To fix the notation:
B1: LINE1-mini (parent)
chain: GGCAGAGCUCAACACAGCGUGGCAAAGUGGCUGUGGCUAGACUGCC

In the data set the parent is B1. Nature of the data set: self-cleavage, relative activity (ratio to wild type); higher = more cleavage; in vitro, sequencing; the parent is a self-cleaving ribozyme.
Take G27C A39G: the self-cleavage was determined as 0.06. As to G27C A39U, the self-cleavage stood at 0.76. G27C A39C: the self-cleavage turned out to be 0.11. The value for G27U G36U was 0.04; that for G27U G36C was 0.1; that for G27U G36A was 0.4. The value for G27U A41C was 0.06.

As for G27U A41U, the self-cleavage came out at 0.49. The value for G27U A41G was 0.27; that for A26U A39C was 0.25; that for A26U A39G was 0.22. With A26U A39U, the self-cleavage came out at 2.46. As for U28A A39C, the self-cleavage worked out at 0.15. The value for U28A A39G was 0.05.

Take U28A A39U: the self-cleavage was 0.39. The value for G27A A39G was 0.08; that for G27A A39U was 0.59; that for G27A A39C was 0.11.

As to G27C C31U, the self-cleavage was determined as 0.07.

G27C C31A: the self-cleavage worked out at 0.15.

On to G27C C31G, for which the self-cleavage is 0.05. For U28C C37A, the self-cleavage was 0.03.

As to U28C C37G, the self-cleavage came out at 0.01. The value for U28C C37U was 0.06; that for U28A G33C was 0.03; that for U28A G33A was 0.06. Consider U28A G33U, for which the self-cleavage amounted to 0.16. With G27U C45G, the self-cleavage was found to be 0.37. The value for G27U C45U was 1.6; that for G27U C45A was 0.92; that for U28A U43C was 0.09. Take U28A U43G: the self-cleavage amounted to 0.03. In the case of U28A U43A, the self-cleavage was 0.11. For A26U G29U, the self-cleavage was 1.61. The value for A26U G29C was 0.35. On to A26U G29A, for which the self-cleavage stood at 1.35. The value for U28A A41G was 0.3; that for U28A A41C was 0.03.

Consider U28A A41U, for which the self-cleavage is 0.42. The value for A26U U28C was 0.74; that for A26U U28A was 0.88. In the case of A26U U28G, the self-cleavage is 1.74. For A26U C42U, the self-cleavage was found to be 0.08.

With A26U C42A, the self-cleavage amounted to 0.29.

For the variant A26U C42G, the self-cleavage turned out to be 0.1. The value for G27C G33A was 0.13; that for G27C G33U was 0.12; that for G27C G33C was 0.04. The value for G27C U28G was 0.51; that for G27C U28A was 0.54; that for G27C U28C was 1.12. On to G27A G40A, for which the self-cleavage came to 0.18.

With G27A G40C, the self-cleavage was found to be 0.17. The value for G27A G40U was 0.14; that for A26U G35A was 0.24; that for A26U G35C was 0.09. The value for A26U G35U was 0.16; that for U28C C46U was 0.51. The value for U28C C46G was 1.68; that for U28C C46A was 0.66; that for G27U U38A was 0.39. With G27U U38C, the self-cleavage amounted to 0.58.

In the case of G27U U38G, the self-cleavage was determined as 0.03.

Take U28A U38A: the self-cleavage amounted to 0.38. The value for U28A U38G was 0.01; that for U28A U38C was 0.38; that for A26G G44A was 0.31. For A26G G44U, the self-cleavage is 0.3.

With A26G G44C, the self-cleavage came out at 0.28.

Consider A26U G27A, for which the self-cleavage stood at 0.8. For the variant A26U G27U, the self-cleavage was found to be 1.41. The value for A26U G27C was 0.66; that for G27U G33U was 0.07. G27U G33A: the self-cleavage turned out to be 0.09. For the variant G27U G33C, the self-cleavage is 0.07. The value for U28C G29A was 0.37; that for U28C G29C was 1.2; that for U28C G29U was 0.77. The value for A26U U43A was 0.08; that for A26U U43G was 0.09; that for A26U U43C was 0.12. With U28A G30A, the self-cleavage came out at 1.65. For the variant U28A G30C, the self-cleavage was 0.62. The value for U28A G30U was 0.77; that for A26U G30A was 1.56. The value for A26U G30C was 1.31. On to A26U G30U, for which the self-cleavage was 1.25. With A26G U32A, the self-cleavage is 0.08. Consider A26G U32C, for which the self-cleavage is 0.18. The value for A26G U32G was 0.18; that for G27A G33C was 0.08; that for G27A G33A was 0.1.

Turning to G27A G33U, the self-cleavage turned out to be 0.17. For U28A G44C, the self-cleavage was found to be 0.62. The value for U28A G44U was 0.33; that for U28A G44A was 0.23; that for G27C U32C was 0.12. The value for G27C U32A was 0.09; that for G27C U32G was 0.08.

As to G27C U43A, the self-cleavage was found to be 0.09.

Turning to G27C U43C, the self-cleavage came out at 0.07. Consider G27C G35A, for which the self-cleavage was 0.09. On to G27C G35U, for which the self-cleavage was 0.07. The value for G27C G35C was 0.25; that for G27U C46U was 1.05; that for G27U C46A was 1.11. For G27U C46G, the self-cleavage worked out at 0.76. Turning to A26G G40A, the self-cleavage is 0.14.

Take A26G G40C: the self-cleavage is 0.08.

With A26G G40U, the self-cleavage turned out to be 0.15.

Turning to G27U G35U, the self-cleavage stood at 0.24.

On to G27U G35C, for which the self-cleavage was 0.09. As to G27U G35A, the self-cleavage turned out to be 0.18.

With G27C C42A, the self-cleavage is 0.07.

G27C C42G: the self-cleavage is 0.09. The value for G27C C42U was 0.11; that for G27U U32C was 0.19. The value for G27U U32G was 0.16.

Take G27U U32A: the self-cleavage is 0.07.

As for U28A G36C, the self-cleavage came to 0.06. The value for U28A G36U was 0.08. Turning to U28A G36A, the self-cleavage came to 0.14. The value for G27U U34G was 0.26; that for G27U U34C was 0.19; that for G27U U34A was 0.23. The value for U28A C37A was 0.04; that for U28A C37U was 0.04. On to U28A C37G, for which the self-cleavage was 0.04. In the case of G27A G35A, the self-cleavage turned out to be 0.19. The value for G27A G35C was 0.12; that for G27A G35U was 0.22. The value for A26U U38C was 0.48. For A26U U38G, the self-cleavage was found to be 0.03.

As to A26U U38A, the self-cleavage was 0.35. On to G27A G29U, for which the self-cleavage came to 0.5. For the variant G27A G29A, the self-cleavage worked out at 0.65. As for G27A G29C, the self-cleavage came to 0.36. For A26U G36A, the self-cleavage was 0.23. The value for A26U G36U was 0.09; that for A26U G36C was 0.13. The value for G27C G44A was 0.47; that for G27C G44U was 0.38; that for G27C G44C was 0.14. The value for G27U G44A was 0.43. G27U G44C: the self-cleavage was 0.82.

In the case of G27U G44U, the self-cleavage came to 0.37.

With G27A G36U, the self-cleavage came out at 0.08. Regarding G27A G36C, the self-cleavage amounted to 0.25. The value for G27A G36A was 0.09; that for U28A C42A was 0.12; that for U28A C42U was 0.22. The value for U28A C42G was 0.02; that for A26G U43C was 0.05. In the case of A26G U43A, the self-cleavage is 0.07. In the case of A26G U43G, the self-cleavage was determined as 0.03. The value for G27C C46G was 0.59; that for G27C C46U was 1.09; that for G27C C46A was 0.71. The value for A26U C45A was 1.95. On to A26U C45G, for which the self-cleavage came to 0.64. As for A26U C45U, the self-cleavage stood at 0.83. With U28C C45U, the self-cleavage came out at 1.88. In the case of U28C C45A, the self-cleavage worked out at 1.7. As for U28C C45G, the self-cleavage amounted to 0.44. For the variant G27C A41C, the self-cleavage was 0.03. The value for G27C A41G was 0.25.

G27C A41U: the self-cleavage worked out at 0.25.
